Laboratory results: article PMC10006412

Molecular target: Newcastle disease virus phosphoprotein (P protein) (Newcastle disease virus)
Assay: cryo-EM structure

**Q.** With “Newcastle disease virus phosphoprotein (P protein) (natural protein)” as the substance, how does the stoichiometry N read?
**A.** The stoichiometry N was 4.
